In this experiment the target is Recombinant Human HER2 ECD (human) (UniProt P04626). Nature of the experiment: SPR.

What is called Kd is a measure of binding affinity in units of concentration. Regarding ABY-025 (designed binder), the Kd came to 0.107 nM.

Source of the values: publication PMC12541621.
